Article PMC12529927, “Functional microRNA targeting without seed pairing”
Changes are numbered by the printed parent chain.

Columns and labels:
[1] = biological target: T1, AGO2 (loaded with guide RNA) (Homo sapiens, UniProt Q9UKV8 1-859); assay: filter binding; range over four guides; 18 mM HEPES pH 7.4, 100 mM K-acetate, 1 mM Mg-acetate, 0.01% IGEPAL, 0.01 mg/mL yeast tRNA, 5 mM DTT, BSA, glycerol, 37 C, 4 h, 1-5 pM target; kinetics with 10; conditions: protein: recombinant, tags: 3xFLAG-SUMOEu1 (removed by SENPEuB cleavage)
[2] = biological target: T1, AGO2 (loaded with guide RNA); assay: filter binding; not above no-site control; 18 mM HEPES pH 7.4, 100 mM K-acetate, 1 mM Mg-acetate, 0.01% IGEPAL, 0.01 mg/mL yeast tRNA, 5 mM DTT, BSA, glycerol, 37 C, 4 h, 1-5 pM target; kinetics with 10; conditions: protein: recombinant, tags: 3xFLAG-SUMOEu1 (removed by SENPEuB cleavage), label: 32P target
[3] = biological target: T1, AGO2 (loaded with guide RNA); assay: filter binding; 18 mM HEPES pH 7.4, 100 mM K-acetate, 1 mM Mg-acetate, 0.01% IGEPAL, 0.01 mg/mL yeast tRNA, 5 mM DTT, BSA, glycerol, 37 C, 4 h, 1-5 pM target; kinetics with 10; conditions: protein: recombinant, tags: 3xFLAG-SUMOEu1 (removed by SENPEuB cleavage)
[4] = biological target: T1, AGO2 (loaded with guide RNA); assay: filter binding; upper bound, ~5 pM; 18 mM HEPES pH 7.4, 100 mM K-acetate, 1 mM Mg-acetate, 0.01% IGEPAL, 0.01 mg/mL yeast tRNA, 5 mM DTT, BSA, glycerol, 37 C, 4 h, 1-5 pM target; kinetics with 10; conditions: protein: recombinant, tags: 3xFLAG-SUMOEu1 (removed by SENPEuB cleavage), label: 32P target, offset +2
[5] = biological target: T1, AGO2 (loaded with guide RNA); assay: filter binding; no boost over m11_23; 18 mM HEPES pH 7.4, 100 mM K-acetate, 1 mM Mg-acetate, 0.01% IGEPAL, 0.01 mg/mL yeast tRNA, 5 mM DTT, BSA, glycerol, 37 C, 4 h, 1-5 pM target; kinetics with 10; conditions: protein: recombinant, tags: 3xFLAG-SUMOEu1 (removed by SENPEuB cleavage), label: 32P target, offset +2
[6] = biological target: AGO2 D669A (loaded with guide RNA) (Homo sapiens, UniProt Q9UKV8 1-859, D669A); assay: hydroxyl radical footprinting; guide 3' region more accessible; 18 mM HEPES pH 7.4, 100 mM K-acetate, 1 mM Mg-acetate, 0.01% IGEPAL, 0.01 mg/mL yeast tRNA, 5 mM DTT, BSA, glycerol, 37 C, 4 h, 1-5 pM target; kinetics with 10; conditions: protein: recombinant, tags: 3xFLAG-SUMOEu1
[7] = biological target: T1, AGO2 (loaded with guide RNA); assay: filter binding; Kd printed only in figure; similar to m9_22; 18 mM HEPES pH 7.4, 100 mM K-acetate, 1 mM Mg-acetate, 0.01% IGEPAL, 0.01 mg/mL yeast tRNA, 5 mM DTT, BSA, glycerol, 37 C, 4 h, 1-5 pM target; kinetics with 10; conditions: protein: recombinant, tags: 3xFLAG-SUMOEu1 (removed by SENPEuB cleavage), label: 32P target, seed g2-8 paired
[8] = biological target: T1, AGO2 (loaded with guide RNA); assay: filter binding; Kd printed only in figure; similar to m11_23; 18 mM HEPES pH 7.4, 100 mM K-acetate, 1 mM Mg-acetate, 0.01% IGEPAL, 0.01 mg/mL yeast tRNA, 5 mM DTT, BSA, glycerol, 37 C, 4 h, 1-5 pM target; kinetics with 10; conditions: protein: recombinant, tags: 3xFLAG-SUMOEu1 (removed by SENPEuB cleavage), label: 32P target, seed g2-8 paired
[9] = biological target: T1, AGO2 (loaded with guide RNA); assay: filter binding; modest boost over m11_23; 18 mM HEPES pH 7.4, 100 mM K-acetate, 1 mM Mg-acetate, 0.01% IGEPAL, 0.01 mg/mL yeast tRNA, 5 mM DTT, BSA, glycerol, 37 C, 4 h, 1-5 pM target; kinetics with 10; conditions: protein: recombinant; tags: 3xFLAG-SUMOEu1 (removed by SENPEuB cleavage); label: 32P target; g11-23 and g2-5 paired, offset +2
[10] = label: 32P target, complementary to g9-19
[11] = label: 32P target, g13-22 paired

T1 sequence (Q9UKV8 whole entry): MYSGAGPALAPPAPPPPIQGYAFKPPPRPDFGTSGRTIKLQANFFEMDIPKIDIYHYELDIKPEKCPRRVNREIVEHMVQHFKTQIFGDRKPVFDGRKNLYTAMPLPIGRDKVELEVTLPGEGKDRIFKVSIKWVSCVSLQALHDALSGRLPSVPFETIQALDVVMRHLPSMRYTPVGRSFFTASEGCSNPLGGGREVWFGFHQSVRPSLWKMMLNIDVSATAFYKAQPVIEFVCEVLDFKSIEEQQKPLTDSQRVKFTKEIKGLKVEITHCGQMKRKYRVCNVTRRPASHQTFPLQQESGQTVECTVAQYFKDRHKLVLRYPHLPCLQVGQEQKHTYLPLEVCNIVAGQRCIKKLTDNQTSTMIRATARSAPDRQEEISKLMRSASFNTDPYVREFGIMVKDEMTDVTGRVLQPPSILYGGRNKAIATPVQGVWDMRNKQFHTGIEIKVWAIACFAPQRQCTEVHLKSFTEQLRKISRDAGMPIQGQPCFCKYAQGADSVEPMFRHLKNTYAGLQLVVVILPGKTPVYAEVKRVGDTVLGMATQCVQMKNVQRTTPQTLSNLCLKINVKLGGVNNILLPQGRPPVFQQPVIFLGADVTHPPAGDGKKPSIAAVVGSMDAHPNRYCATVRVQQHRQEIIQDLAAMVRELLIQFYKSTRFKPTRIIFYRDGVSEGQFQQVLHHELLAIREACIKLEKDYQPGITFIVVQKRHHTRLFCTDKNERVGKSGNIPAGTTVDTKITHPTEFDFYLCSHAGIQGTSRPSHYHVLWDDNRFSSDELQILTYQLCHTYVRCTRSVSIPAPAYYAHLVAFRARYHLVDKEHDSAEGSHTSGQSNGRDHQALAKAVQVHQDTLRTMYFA
Sequence of AGO2 D669A (loaded with guide RNA) (Q9UKV8 whole entry D669A): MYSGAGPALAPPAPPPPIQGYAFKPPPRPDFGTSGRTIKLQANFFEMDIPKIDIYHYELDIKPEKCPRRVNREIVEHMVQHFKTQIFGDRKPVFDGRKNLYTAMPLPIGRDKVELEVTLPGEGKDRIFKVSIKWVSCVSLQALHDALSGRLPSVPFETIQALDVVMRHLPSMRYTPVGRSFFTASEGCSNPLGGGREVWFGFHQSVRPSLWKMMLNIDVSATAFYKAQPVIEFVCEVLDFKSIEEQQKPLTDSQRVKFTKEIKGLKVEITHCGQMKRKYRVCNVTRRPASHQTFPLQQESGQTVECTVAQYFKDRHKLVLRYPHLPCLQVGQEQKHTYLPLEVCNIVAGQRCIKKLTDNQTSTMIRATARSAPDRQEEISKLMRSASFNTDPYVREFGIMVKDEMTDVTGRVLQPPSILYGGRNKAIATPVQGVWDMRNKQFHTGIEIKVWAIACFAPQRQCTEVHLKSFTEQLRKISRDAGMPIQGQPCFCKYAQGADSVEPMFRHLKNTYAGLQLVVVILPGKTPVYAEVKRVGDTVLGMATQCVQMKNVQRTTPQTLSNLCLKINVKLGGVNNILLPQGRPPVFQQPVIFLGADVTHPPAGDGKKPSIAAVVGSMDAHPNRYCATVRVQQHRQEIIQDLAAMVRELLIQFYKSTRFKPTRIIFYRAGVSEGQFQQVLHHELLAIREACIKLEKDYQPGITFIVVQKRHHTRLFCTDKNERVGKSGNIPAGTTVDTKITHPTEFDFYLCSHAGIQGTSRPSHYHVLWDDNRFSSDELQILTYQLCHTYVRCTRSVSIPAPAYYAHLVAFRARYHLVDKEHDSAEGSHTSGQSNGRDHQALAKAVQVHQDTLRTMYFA

B1: miR-124 wt / m9_19 (mixed)
RNA 1: UAAGGCACGCGGUGAAUGCCAA
RNA 2: UUUUUUGCAUUCACCGCUUUUUUUUUUUUUUU
modifications: 5'-phosphate guide
Question: For B1, which Kd [1, 10] is on record?
Answer: Its Kd is ~205 pM.

B2: miR-124 mut / m9_19 (mixed)
RNA 1: UCUGGCUCGCGGUGAAUGCCAA
RNA 2: B1 RNA 2
modifications: 5'-phosphate guide
Question: How did the Kd [1, 10] turn out when B2 was run?
Answer: Its Kd is ~205 pM.

B3: miR-124 wt / m11_18 (mixed)
RNA 1: UAAGGCACGCGGUGAAUGCCAA
RNA 2: UUUUUUUUCAUUCACCUUUUUUUUUUUU
modifications: 5'-phosphate guide
Question: Does B3 bind ([2]; g11-18 paired)?
Answer: Result: no binding

B4: let-7a / m11_22 (also labelled m10_22) (mixed)
RNA 1: UGAGGUAGUAGGUUGUAUAGUU
RNA 2: UUUUUAACUAUACAACCUUUUUUUUUUUUUUU
modifications: 5'-phosphate guide
Question: B4 was tested. Which Kd ([3]; g11-22 paired) did it give?
Answer: Its Kd is ~400 pM.

B5: miR-155 mut / m11_23|+2|m2_7 (mixed)
RNA 1: UUCGUGCUAAUCGUGAUAGGGGU
RNA 2: UUUUACCCCUAUCACGACCUUUGCACGAUUUU
modifications: 5'-phosphate guide
Question: For B5, which Kd ([4]; g11-23 and g2-7 paired) is on record?
Answer: Its Kd is < 5 pM.

B6: miR-155 mut / m11_23|+2|m2_8 (mixed)
RNA 1: UUCGUGCUAAUCGUGAUAGGGGU
RNA 2: B5 RNA 2 with U22A
modifications: 5'-phosphate guide
Question: For B6, which Kd ([4]; g11-23 and g2-8 paired) is on record?
Answer: Its Kd is < 5 pM.

B7: miR-155 mut / m11_23|+2|m2_4 (mixed)
RNA 1: UUCGUGCUAAUCGUGAUAGGGGU
RNA 2: B5 RNA 2 with G23U, C24U, A25U
modifications: 5'-phosphate guide
Question: Does B7 bind ([5]; g11-23 and g2-4 paired)?
Answer: Result: binds

B8: miR-155 mut / m11_23|+2|m2_3 (mixed)
RNA 1: UUCGUGCUAAUCGUGAUAGGGGU
RNA 2: B5 RNA 2 with G23U, C24U, A25U, C26U
modifications: 5'-phosphate guide
Question: Does B8 bind ([5]; g11-23 and g2-3 paired)?
Answer: Result: binds

B9: miR-155 mut / m11_23|+2|m1_8 (mixed)
RNA 1: UUCGUGCUAAUCGUGAUAGGGGU
RNA 2: UUUUUUACCCCUAUCACGACCUUAGCACGAAUUUUUUUUU
modifications: 5'-phosphate guide
Question: With B9 as the binder, how does the Kd ([4]; g11-23 and g1-8 paired) read?
Answer: Its Kd is < 5 pM.

B10: miR-155 wt / m11_23|+2|m1_8 (mixed)
RNA 1: UUAAUGCUAAUCGUGAUAGGGGU
RNA 2: B9 RNA 2 with C28U, G29U
modifications: 5'-phosphate guide
Question: Does B10 bind ([6]; label: 32P target (kon) or 32P guide (probing), g11-23 and g1-8 paired, offset +2)?
Answer: Result: binds

B11: miR-124 mut / 7mer-m8 (mixed)
RNA 1: UCUGGCUCGCGGUGAAUGCCAA
RNA 2: UUUUUUUUUUUGAGCCAGUUUUUU
modifications: 5'-phosphate guide
Question: Does B11 bind [7]?
Answer: Result: binds

B12: miR-124 wt / m9_22|+3|m1_8 (mixed)
RNA 1: UAAGGCACGCGGUGAAUGCCAA
RNA 2: UUUUUUUUGGCAUUCACCGCUUUGUGCCUUAUUUUUUUUU
modifications: 5'-phosphate guide
Question: Does B12 bind ([6]; label: 32P guide, g9-22 and g1-8 paired, offset +3)?
Answer: Result: binds

B13: miR-155 wt / m13_22 (mixed)
RNA 1: UUAAUGCUAAUCGUGAUAGGGGU
RNA 2: UUUUUUCCCCUAUCACUUUUUUUUUUUUUUUU
modifications: 5'-phosphate guide
Question: How did the Kd [1, 11] turn out when B13 was run?
Answer: The Kd was ~205 pM.

B14: miR-155 mut / m13_22 (mixed)
RNA 1: UUCGUGCUAAUCGUGAUAGGGGU
RNA 2: B13 RNA 2
modifications: 5'-phosphate guide
Question: With B14 as the binder, how does the Kd [1, 11] read?
Answer: The Kd was ~205 pM.

B15: miR-124 mut / m11_18 (mixed)
RNA 1: UCUGGCUCGCGGUGAAUGCCAA
RNA 2: UUUUUUUUCAUUCACCUUUUUUUUUUUU
modifications: 5'-phosphate guide
Question: Does B15 bind ([2]; g11-18 paired)?
Answer: Result: no binding

B16: miR-155 mut / 7mer-m8 (mixed)
RNA 1: UUCGUGCUAAUCGUGAUAGGGGU
RNA 2: UUUUUUUUUAAAGCACGAUUUUUU
modifications: 5'-phosphate guide
Question: Does B16 bind [8]?
Answer: Result: binds

B17: miR-124 wt / 7mer-m8 (mixed)
RNA 1: UAAGGCACGCGGUGAAUGCCAA
RNA 2: UUUUUUUUUUUGUGCCUUUUUUUU
modifications: 5'-phosphate guide
Question: Does B17 bind [7]?
Answer: Result: binds

B18: miR-155 wt / m13_20 (mixed)
RNA 1: UUAAUGCUAAUCGUGAUAGGGGU
RNA 2: UUUUUUUCCUAUCACUUUUUUUUUUUUUU
modifications: 5'-phosphate guide
Question: Does B18 bind ([2]; g13-20 paired)?
Answer: Result: no binding

B19: miR-155 mut / m11_23 (mixed)
RNA 1: UUCGUGCUAAUCGUGAUAGGGGU
RNA 2: UUUUUUACCCCUAUCACGACCUUUUUUUUUUUUUUU
modifications: 5'-phosphate guide
Question: How did the Kd ([1]; label: 32P target, g11-23 paired) turn out when B19 was run?
Answer: The Kd was ~26.5 pM.

B20: miR-155 wt / m11_23 (mixed)
RNA 1: UUAAUGCUAAUCGUGAUAGGGGU
RNA 2: B19 RNA 2
modifications: 5'-phosphate guide
Question: B20 was tested. Which Kd ([1]; g11-23 paired) did it give?
Answer: The Kd was ~26.5 pM.

Question: Does B20 bind ([6]; guide:target, g11-23 paired)?
Answer: Result: binds

B21: miR-155 mut / m11_23|+2|m2_5 (mixed)
RNA 1: UUCGUGCUAAUCGUGAUAGGGGU
RNA 2: UUUUUUACCCCUAUCACGACCUUUUUACGAUUUUUUUUUUUUUU
modifications: 5'-phosphate guide
Question: Does B21 bind [9]?
Answer: Result: binds

B22: miR-155 mut / m13_20 (mixed)
RNA 1: UUCGUGCUAAUCGUGAUAGGGGU
RNA 2: UUUUUUUCCUAUCACUUUUUUUUUUUUUU
modifications: 5'-phosphate guide
Question: Does B22 bind ([2]; g13-20 paired)?
Answer: Result: no binding

B23: let-7a / 7mer-m8 (mixed)
RNA 1: UGAGGUAGUAGGUUGUAUAGUU
RNA 2: UUUUUUUUUUUUUUUUUUCUACCUCUUUUUUU
modifications: 5'-phosphate guide
Question: How did the Kd ([3]; label: 32P target, seed g2-8 paired) turn out when B23 was run?
Answer: The Kd was < 5 pM.

B24: miR-155 wt / 7mer-m8 (mixed)
RNA 1: UUAAUGCUAAUCGUGAUAGGGGU
RNA 2: UUUUUUUUUAAAGCAUUAUUUUUU
modifications: 5'-phosphate guide
Question: Does B24 bind [8]?
Answer: Result: binds

B25: miR-155 mut / m11_23|+2|m2 (mixed)
RNA 1: UUCGUGCUAAUCGUGAUAGGGGU
RNA 2: UUUUACCCCUAUCACGACCUUUUUUUUAUUUU
modifications: 5'-phosphate guide
Question: Does B25 bind ([5]; g11-23 and g2 paired)?
Answer: Result: binds

B26: miR-124 wt / m9_22 (mixed)
RNA 1: UAAGGCACGCGGUGAAUGCCAA
RNA 2: UUUUUUUUGGCAUUCACCGCUUUUUUUUUUUUUUUU
modifications: 5'-phosphate guide
Question: For B26, which Kd ([1]; complementary to g9-22) is on record?
Answer: The Kd was ~26.5 pM.

Question: Does B26 bind ([6]; guide:target, complementary to g9-22)?
Answer: Result: binds

B27: miR-124 mut / m9_22 (mixed)
RNA 1: UCUGGCUCGCGGUGAAUGCCAA
RNA 2: B26 RNA 2
modifications: 5'-phosphate guide
Question: How did the Kd ([1]; label: 32P target, complementary to g9-22) turn out when B27 was run?
Answer: Its Kd is ~26.5 pM.
